The chains are these.
B1: PRT-150 (protein)
chain: MANQEIRYSEVTPYHVTSVWTKGVTPPANFTQGEDVFHAPYVANQGWYDITKTFNGKDDLLCGAATAGNMLHWWFDQNKDQIKRYLEEHPEKQKINFNGEQMFDVKEAIDTKNHQLDSKLFEYFKEKAFPYLSTKHLGVFPDHVIDMFINGYRLSLTNHGPTPVKRQEKDPRGGIFDAVFGRGDQTKLLTSRHDFKEKNLKEISDLIKKELTEGKALGLSHTYANVRINHVINLWGADFDSNGNLKAIYVTDSDSNASIGMKKYFVGVNSAGKVAISAKEIKEDNIGAQVLGLFTLSTGQKSWNKTN
B2: PRT-157 (protein)
chain: MANQEIRYSEVTPYHVTSVWTKGVTPPEDFTQGEDVFHAPYKANQGWYDITKTFNGKDDLLCGAATAGNMLHWWFDQNKDQIKRYLEEHPEKQKINFNGEQMFDVKEAIDTKNHQLDSKLFEYFKEKAFPYLSTKHLGVFPDHVIDMFINGYRLSLTNHGPTPVKEGSKDPRGGIFDAVFTRGDQSKLLTSRHDFKEKNLKEISDLIKKELTEGKALGLSHTYANVRINHVINLWGADFDSNGNLKAIYVTDSDSNASIGMKKYFVGVNSAGKVAISAKEIKEDNIGAQVLGLFTLSTGQDSWNQTN
B3: PRT-151 (protein)
chain: MANQEIRYSEVTPYHVTSVWTKGVTPPANFTQGEDVFHAPYVANQGWYDITKTFNGKDDLLCGAATAGNMLHWWFDQNKDQIKRYLEEHPDKQKINFNGEQMFDVKEAIDTKNHQLDSKLFEYFKEKAFPYLSTKHLGVFPDHVIDMFINGYRLSLTNHGPTPVKRQTKDPRGGIFDAVFGRGDSTKLLTSRHDFKEKNLKEISDLIKKELTEGKALGLSHTYANVRINHVINLWGADFDSNGNLKAIYVTDSDSNASIGMKKYFVGVNSAGKVAISAKEIKEDNIGAQVLGLFTLSTGQKSWNKTN
B4: PRT-156 (protein)
chain: MANQEIRYSEVTPYHVTSVWTKGVTPPTDFTQGEDVFHAPYKANQGWYDITKTFNGKDDLLCGAATAGNMLHWWFDQNKDQIKRYLEEHPEKQKINFNGEQMFDVKEAIDTKNHQLDSKLFEYFKEKAFPYLSTKHLGVFPDHVIDMFINGYRLSLTNHGPTPVKEGSKDPRGGIFDAVFTRGDQSKLLTSRHDFKEKNLKEISDLIKKELTEGKALGLSHTYANVRINHVINLWGADFDSNGNLKAIYVTDSDSNASIGMKKYFVGVNSAGKVAISAKEIKEDNIGAQVLGLFTLSTGQDSWNQTN
B5: PRT-152 (protein)
chain: MANQEIRYSEVTPYHVTSVWTKGVTPPANFTQGEDVFHAPYVANQGWYDITKTFNGKDDLLCGAATAGNMLHWWFDQNKTQIERYLKKHPEKQKINFNGEQMFDVKEAIDTKNHQLDSKLFEYFKEKAFPYLSTKHLGVFPDHVIDMFINGYRLSLTNHGPTPVKEGSKDPRGGIFDAVFTRGDQSKLLTSRHDFKEKNLKEISDLIKKELTEGKALGLSHTYANVRINHVINLWGADFDSNGNLKAIYVTDSDSNASIGMKKYFVGVNSAGKVAISAKEIKEDNIGAQVLGLFTLSTGKDSWEKTN
B6: PRT-153 (protein)
chain: MANQEIRYSEVTPYHVTSVWTKGVTPPANFTQGEDVFHAPYVANQGWYDITKTFNGKDDLLCGAATAGNMLHWWFDQNKTQIERYLKKHPEKQKINFNGEQMFDVKEAIDTKNHQLDSKLFEYFKEKAFPYLSTKHLGVFPDHVIDMFINGYRLSLTNHGPTPVKEGSKDPRGGIFDAVFTRGDQSKLLTSRHDFKEKNLKEISDLIKKELTEGKALGLSHTYANVRINHVINLWGADFDSNGNLKAIYVTDSDSNASIGMKKYFVGVNSAGKVAISAKEIKEDNIGAQVLGLFTLSTGKDSWKKTN
B7: PRT-154 (protein)
chain: MANQEIRYSEVTPYHVTSVWTKGVTPPANFTQGEDVFHAPYVANQGWYDITKTFNGKDDLLCGAATAGNMLHWWFDQNKTQIEAYLKKHPEKQKINFNGEQMFDVKEAIDTKNHQLDSKLFEYFKEKAFPYLSTKHLGVFPDHVIDMFINGYRLSLTNHGPTPVKEGSKDPRGGIFDAVFTRGDQSKLLTSRHDFKEKNLKEISDLIKKELTEGKALGLSHTYANVRINHVINLWGADFDSNGNLKAIYVTDSDSNASIGMKKYFVGVNSAGKVAISAKEIKEDNIGAQVLGLFTLSTGKKSWEKTN
B8: PRT-155 (protein)
chain: MANQEIRYSEVTPYHVTSVWTDGVTPPANFTQGEDVFHAPYVANQGWYDITKTFNGKDDLLCGAATAGNMLHWWFDQNSTQIEAYLKKHPEKQKINFNGEQMFDVKEAIDTKNHQLDSKLFEYFKEKAFPYLSTKHLGVFPDHVIDMFINGYRLSLTNHGPTPVKEGSKDPRGGIFDAVFTRGDQSKLLTSRHDFKEKNLKEISDLIKKELTEGKALGLSHTYANVRINHVINLWGADFDSNGNLKAIYVTDSDSNASIGMKKYFVGVNSAGKVAISAKEIKEDNIGAQVLGLFTLSTGKKSWEKTN
B9: PRT-158 (protein)
chain: MANQEIRYSEVTPYHVTSVWTKGVTPPTDFIKGEDVFHAPYKAHQGWYDITKTFNGKDDLLCGAATAGNMLHWWFDQNKDQIKRYLEEHPEKQKINFNGEQMFDVKEAIDTKNHQLDSKLFEYFKEKAFPYLSTKHLGVFPDHVIDMFINGYRLSLTNHGPTPVKEGSKDPRGGIFDAVFTRGDQSKLLTSRHDFKEKNLKEISDLIKKELQEGKALGLSHTYANVRINHVINLWGADFDSNGNLKAIYVTDSDSNASIGMKKYFVGVNSAGKVAISAKEIKEDNIGAQVLGLFTLSTGQDSWNQTN
B10: PRT-161 (protein)
chain: MANQEIRYSEVTPYHVTIVWTDGVKPPTDFIKGEDVFHAPYKAHQGWYDITKTFNGKDDLLCGAATAGNMLHWWFDQNKDQIKRYLEEHPEKQKINFNGEQMFDVKEAIDTKNHQLDSKLFEYFKEKAFPYLSTKHLGVFPDHVIDMFINGYRLSLTNHGPTPVKEGSKDPRGGIFDAVFTRGDQSKLLTSRHDFKEKNLKEISDLIKKELQEGKALGLSHTYANVRINHVINLWGADFDSNGNLKAIYVTDSDSNASIGMKKYFVGVNSAGKVAISAKEIKEDNIGAQVLGLFTLSTGQDSWNQTN
B11: PRT-159 (protein)
chain: MANQEIRYSEVTPYHVTSVWTKGVTPPTDFIKGEDVFHAPYKAGQGWYDITKTFNGKDDLLCGAATAGNMLHWWFDQNKDQIKRYLEEHPEKQKINFNGEQMFDVKEAIDTKNHQLDSKLFEYFKEKAFPYLSTKHLGVFPDHVIDMFINGYRLSLTNHGPTPVKEGSKDPRGGIFDAVFTRGDQSKLLTSRHDFKEKNLKEISDLIKKELQEGKALGLSHTYANVRINHVINLWGADFDSNGNLKAIYVTDSDSNASIGMKKYFVGVNSAGKVAISAKEIKEDNIGAQVLGLFTLSTGQDSWNQTN
B12: PRT-160 (protein)
chain: MANQEIRYSEVTPYHVTTVWTDGVKPPTDFIKGEDVFHAPYKAHQGWYDITKTFNGKDDLLCGAATAGNMLHWWFDQNKDQIKRYLEEHPEKQKINFNGEQMFDVKEAIDTKNHQLDSKLFEYFKEKAFPYLSTKHLGVFPDHVIDMFINGYRLSLTNHGPTPVKEGSKDPRGGIFDAVFTRGDQSKLLTSRHDFKEKNLKEISDLIKKELQEGKALGLSHTYANVRINHVINLWGADFDSNGNLKAIYVTDSDSNASIGMKKYFVGVNSAGKVAISAKEIKEDNIGAQVLGLFTLSTGQDSWNQTN
B13: PRT-14 (protein)
chain: MANQEIRYSEVTPYTVTSVWTKGVTPPADFTQGEDVFHAPYIANQGWYDITKTFNGKDDLLCGAATAGNMLHWWFDQNKEQIERYLKKHPEKQKINFNGEQMFDVKEAIDTKDSQTDSELFEYFKEKAFPYLSTKHLGVFPDHVLDMFINGYRLSLTNHGPTPVKEGSKDPRGGIFDAVFTRGDQSKLLTNRHDFKEKTLSEISDLIKKELTEGKALGLSHTYANVRINHVINLWGADFDSEGNLEAIYVTDSDSNASIGMKKYFVGVNSAGKVAISAKEIKEDNIGAQVLGLFTLSTGQDIWNQTN

The target of this data set is pooled human IgG.
B1 showed an Enzyme Activity Endpoint Assay (purified): Fab'2 of 612 ng/µL, an Enzyme Activity Endpoint Assay (purified): Fc of 161 ng/µL, an Enzyme Activity Endpoint Assay (purified): IgG of 0 ng/µL and an Enzyme Activity Endpoint Assay (purified): scIgG of 0 ng/µL.

As to B2, the Enzyme Activity Endpoint Assay (purified): Fab'2 is 806 ng/µL, the Enzyme Activity Endpoint Assay (purified): Fc is 198 ng/µL, the Enzyme Activity Endpoint Assay (purified): IgG is 0 ng/µL and the Enzyme Activity Endpoint Assay (purified): scIgG is 0 ng/µL.

In the case of B3, the Enzyme Activity Endpoint Assay (purified): Fab'2 is 521 ng/µL, the Enzyme Activity Endpoint Assay (purified): Fc was determined as 137 ng/µL, the Enzyme Activity Endpoint Assay (purified): IgG amounted to 0 ng/µL and the Enzyme Activity Endpoint Assay (purified): scIgG is 0 ng/µL.

In turn, B4 had an Enzyme Activity Endpoint Assay (purified): Fab'2 of 772 ng/µL, an Enzyme Activity Endpoint Assay (purified): Fc of 205 ng/µL, an Enzyme Activity Endpoint Assay (purified): IgG of 0 ng/µL and an Enzyme Activity Endpoint Assay (purified): scIgG of 0 ng/µL.

On to B5, for which the Enzyme Activity Endpoint Assay (purified): Fab'2 came to 614 ng/µL, the Enzyme Activity Endpoint Assay (purified): Fc was 158 ng/µL, the Enzyme Activity Endpoint Assay (purified): IgG is 0 ng/µL and the Enzyme Activity Endpoint Assay (purified): scIgG was 0 ng/µL.

For B6, the Enzyme Activity Endpoint Assay (purified): Fab'2 came out at 619 ng/µL, the Enzyme Activity Endpoint Assay (purified): Fc is 190 ng/µL, the Enzyme Activity Endpoint Assay (purified): IgG turned out to be 0 ng/µL and the Enzyme Activity Endpoint Assay (purified): scIgG is 0 ng/µL.

On to B7, for which the Enzyme Activity Endpoint Assay (purified): Fab'2 turned out to be 733 ng/µL, the Enzyme Activity Endpoint Assay (purified): Fc was 191 ng/µL, the Enzyme Activity Endpoint Assay (purified): IgG came out at 0 ng/µL and the Enzyme Activity Endpoint Assay (purified): scIgG is 0 ng/µL.

In the case of B8, the Enzyme Activity Endpoint Assay (purified): Fab'2 came out at 751 ng/µL, the Enzyme Activity Endpoint Assay (purified): Fc turned out to be 197 ng/µL, the Enzyme Activity Endpoint Assay (purified): IgG came to 0 ng/µL and the Enzyme Activity Endpoint Assay (purified): scIgG stood at 18 ng/µL.

As for B9, the Enzyme Activity Endpoint Assay (purified): Fab'2 is 637 ng/µL, the Enzyme Activity Endpoint Assay (purified): Fc came out at 163 ng/µL, the Enzyme Activity Endpoint Assay (purified): IgG amounted to 0 ng/µL and the Enzyme Activity Endpoint Assay (purified): scIgG was found to be 0 ng/µL.

On to B10, for which the Enzyme Activity Endpoint Assay (purified): Fab'2 turned out to be 669 ng/µL, the Enzyme Activity Endpoint Assay (purified): Fc was 172 ng/µL, the Enzyme Activity Endpoint Assay (purified): IgG amounted to 0 ng/µL and the Enzyme Activity Endpoint Assay (purified): scIgG was 0 ng/µL.

B11 came in with an Enzyme Activity Endpoint Assay (purified): Fab'2 of 637 ng/µL, an Enzyme Activity Endpoint Assay (purified): Fc of 184 ng/µL, an Enzyme Activity Endpoint Assay (purified): IgG of 0 ng/µL and an Enzyme Activity Endpoint Assay (purified): scIgG of 0 ng/µL.

B12: the Enzyme Activity Endpoint Assay (purified): Fab'2 amounted to 642 ng/µL, the Enzyme Activity Endpoint Assay (purified): Fc is 168 ng/µL, the Enzyme Activity Endpoint Assay (purified): IgG was found to be 0 ng/µL and the Enzyme Activity Endpoint Assay (purified): scIgG came out at 0 ng/µL.

Consider B13, for which the Enzyme Activity Endpoint Assay: Fab′2 is 18 ng/µL, the Enzyme Activity Endpoint Assay: Fc came to 94 ng/µL, the Enzyme Activity Endpoint Assay: IgG worked out at 13 ng/µL and the Enzyme Activity Endpoint Assay: scIgG was determined as 43 ng/µL.

For the origin of these results see patent US20250027068.
